Experimental data published in publication PMC4176360, “Crystal structure of the catalytic core of Rad2: insights into the mechanism of substrate binding” (Nucleic Acids Research, 2014).

Legend:
Sc-Rad2-ΔSC [1] = biological target: T1, Sc-Rad2-ΔSC (Saccharomyces cerevisiae, UniProt P07276 2-986, del112-731;del987-1031); assay: X-ray crystallography, 2.4 Å; Ca2+ at active site; K+ at H2TH; Crystallization at room temperature, protein:DNA 1:1.2, 10 mg/ml protein; protein in 20 mM HEPES pH 7.5, 150 mM KCl, 5 mM Ca acetate, 5% glycerol, 0.5 mM TCEP (complex I: 150 mM NaCl); point-mutant cleavage assays without a binding read-out not listed; settings: protein: recombinant; tags: 6xHis-SUMO removed by SENP; N-terminal Gly2 after cleavage; chain copies: 2; 15 bp with 1 nt overhangs on all four ends
Sc-Rad2-ΔSC [2] = biological target: T1, Sc-Rad2-ΔSC; assay: X-ray crystallography, 2.7 Å; Ca2+ at active site; K+ at H2TH; Crystallization at room temperature, protein:DNA 1:1.2, 10 mg/ml protein; protein in 20 mM HEPES pH 7.5, 150 mM KCl, 5 mM Ca acetate, 5% glycerol, 0.5 mM TCEP (complex I: 150 mM NaCl); point-mutant cleavage assays without a binding read-out not listed; settings: protein: recombinant; tags: 6xHis-SUMO removed by SENP; N-terminal Gly2 after cleavage; chain copies: 2; 15 bp with 4 nt overhangs on all four ends
Sc-Rad2-ΔSC [3] = biological target: T1, Sc-Rad2-ΔSC; assay: X-ray crystallography, 2.1 Å; Ca2+ at active site; K+ at H2TH; Crystallization at room temperature, protein:DNA 1:1.2, 10 mg/ml protein; protein in 20 mM HEPES pH 7.5, 150 mM KCl, 5 mM Ca acetate, 5% glycerol, 0.5 mM TCEP (complex I: 150 mM NaCl); point-mutant cleavage assays without a binding read-out not listed; settings: protein: recombinant; tags: 6xHis-SUMO removed by SENP; N-terminal Gly2 after cleavage; chain copies: 2; 14 complementary bp with TT overhangs on all four ends; in crystal 15-mer duplex with one T-T mismatch, 1 nt overhangs at one end and 2 nt at the other
[4] = biological target: Sc-Rad2-ΔSC (complex I construct) (Saccharomyces cerevisiae, UniProt P07276 1-986, del112-731;del987-1031); assay: X-ray crystallography; non-productive complex; DNA largely disordered, backbone contacts H2TH of one subunit; Crystallization at room temperature, protein:DNA 1:1.2, 10 mg/ml protein; protein in 20 mM HEPES pH 7.5, 150 mM KCl, 5 mM Ca acetate, 5% glycerol, 0.5 mM TCEP (complex I: 150 mM NaCl); point-mutant cleavage assays without a binding read-out not listed; settings: protein: recombinant; tags: 6xHis-SUMO cleaved; two additional N-terminal residues left; chain copies: 2; duplex 12-15 bp with overhangs
[5] = biological target: the molecule itself; assay: crystal structure; complex I: selenomethionine-labeled Rad2-ΔSC mixed with DNA at a 1:1.2 molar ratio, sitting-drop vapor diffusion, room temperature, reservoir 20% (v/v) ethylene glycol; space group P3(2)21, 2.75 Å

B1: complex III DNA (dsDNA)
DNA 1: TGCTCCCTTGTCTCAGT
DNA 2: TCTGAGACAAGGGAGCT
binding result (Sc-Rad2-ΔSC [1]): binds

B2: complex IV DNA (dsDNA)
DNA 1: TTTTGCTCCCTTGTCTCAGTTTT
DNA 2: TTTTCTGAGACAAGGGAGCTTTT
binding result (Sc-Rad2-ΔSC [2]): binds

B3: complex II DNA (dsDNA)
DNA 1: TTAGGTGGACGGATCATT
DNA 2: TTTGATCCGTCCACCTTT
binding result (Sc-Rad2-ΔSC [3]): binds

B4: complex I DNA (dsDNA)
DNA 1: AAAGCTCTGACTCAG
DNA 2: CTGAGTCAGAGCAAA
binding result [4]: binds

B5: Sc-Rad2-ΔSC (Δ112-731, Δ987-1031) (enzyme, S. cerevisiae, UniProt P07276 1-986, looked up)
chain: MGVHSFWDIAGPTARPVRLESLEDKRMAVDASIWIYQFLKAVRDQEGNAVKNSHITGFFRRICKLLYFGIRPVFVFDGGVPVLKRETIRQRKERRQGKRESAKSTARKLLANTTLSTSAERNVAENAFVEDELFEQQMKDKRDSDEVTMDMIKEVQELLSRFGIPYITAPMEAEAQCAELLQLNLVDGIITDDSDVFLFGGTKIYKNMFHEKNYVEFYDAESILKLLGLDRKNMIELAQLLGSDYTNGLKGMGPVSSIEVIAEFGNLKNFKDWYNNGQFDKRKQETENKFEKDLRKKLVNNEIILDDDFPSVMVYDAYMRPEVDHDTTPFVWGVPDLDMLRSFMKTQLGWPHEKSDEILIPLIRDV
modifications: selenomethionine-labeled (complex I)
notes: Rad2, S. cerevisiae, spacer residues 112-731 removed and C-terminus (residues 987-1031) removed; The dimer is seen in crystal complex I together with disordered DNA; The same construct, not selenomethionine-labeled, stands in complexes II-IV; also called Sc-Rad-ΔSC; catalytic core of Rad2; source: E. coli BL21 (DE3) Rosseta, purified (HisTrap, SENP cleavage, second HisTrap, Superdex 200); …
binding result [5]: binds
